{"source": "patent US20250032566A1", "about": "(YEDA RESEARCH AND DEVELOPMENT, published 2025)", "key": {"[1]": {"target": "T1, ThsA (Thoeris defense system protein) (UniProt J8G6Z1 1-476)", "T1 construct": "Expressed from pBAD as a ThsA-ThsB operon in E. coli MG1655; also called Thoeris (ThsA/B)", "T1 sequence": "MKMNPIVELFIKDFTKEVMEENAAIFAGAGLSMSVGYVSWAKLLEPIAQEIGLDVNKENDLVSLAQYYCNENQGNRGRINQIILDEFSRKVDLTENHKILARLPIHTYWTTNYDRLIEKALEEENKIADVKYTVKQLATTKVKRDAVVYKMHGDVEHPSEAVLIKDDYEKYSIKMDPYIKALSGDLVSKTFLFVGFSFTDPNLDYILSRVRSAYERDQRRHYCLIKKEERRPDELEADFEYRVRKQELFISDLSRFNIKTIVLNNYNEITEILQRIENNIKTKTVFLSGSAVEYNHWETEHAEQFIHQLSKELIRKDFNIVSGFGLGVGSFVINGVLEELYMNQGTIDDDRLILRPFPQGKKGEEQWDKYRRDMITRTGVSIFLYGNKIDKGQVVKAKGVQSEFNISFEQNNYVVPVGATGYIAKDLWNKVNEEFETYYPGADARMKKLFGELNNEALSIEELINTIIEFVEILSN", "experiment": "His-tag pulldown on Ni-NTA magnetic beads from E. coli lysate co-expressing TAD1-His, ThsA and ThsB; SDS-PAGE"}, "[2]": {"target": "T2, ThsB (Thoeris defense system TIR-domain protein) (UniProt J8G8J6 1-192)", "T2 construct": "Expressed from pBAD as a ThsA-ThsB operon in E. coli MG1655; also called Thoeris (ThsA/B)", "T2 sequence": "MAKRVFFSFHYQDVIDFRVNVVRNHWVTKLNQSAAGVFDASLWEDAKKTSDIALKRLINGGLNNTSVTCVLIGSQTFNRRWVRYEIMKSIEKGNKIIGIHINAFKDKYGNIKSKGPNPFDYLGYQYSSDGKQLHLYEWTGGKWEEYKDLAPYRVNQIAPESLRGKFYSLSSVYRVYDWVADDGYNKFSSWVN", "experiment": "His-tag pulldown on Ni-NTA magnetic beads from E. coli lysate co-expressing TAD1-His, ThsA and ThsB; SDS-PAGE"}}}
{"binder": "TAD1 (Thoeris Anti Defense 1) from phage SBSphiJ7 with a C-terminal His-tag (other, Co-expressed with ThsA and ThsB in E. coli MG1655 and pulled down on Ni-NTA magnetic beads; also called TAD1-His; His-TAD1; not shown: C-terminal His-tag) MRELKHELLPTRHTQVFHEDKDKMEFNAPHHFVVVPAGSPLVDQQIHYGRGGNSKKVTVKDFAGKLATVNFQLGPVTEHGANGVMNEDLIAMVITRLQYFQNSEFNCRENAMAITKLEEALMWLNKRTAEREQRGVEGTHEK", "values": [{"measurement": "binding result", "setting": "[1]", "result": "no binding"}, {"measurement": "binding result", "setting": "[2]", "result": "no binding"}]}
